Several values for one entry are separate records, joined by “and”; a condition that tells them apart may be missing. Equal values may be shown once.
Experiments:
[1] = high-throughput enzyme assay with crude bacterial extract; format: biochemical; details: relative to wild-type RdpA; for Average quizalofop-P activity: average of replicates
Protocol: The high-throughput bacterial protein expression was achieved by synthesizing a recombinant DNA molecule encoding each engineered protein and cloning this into a bacterial expression vector with a C-terminal histidine tag (His-tag) operably linked to the recombinant DNA molecule. The vectors were used to transform Escherichia coli (E. coli), and bacterial expression of the engineered proteins was induced. Overnight E. coli cultures were grown in 96-well plates and the cultures were centrifuged to pellet the bacteria. The bacterial pellets were lysed by adding 100 ul lysis master mix (10 ml of Bacteria Protein Extraction Reagent (B-PER®) II (Pierce Biotechnology, Rockford, IL; cat. no. 78260); 10 ul Lysozyme (10 ug/ml final; Lysozyme American Bioanalytical, Natick, MA; cat. no. AB011780-00005); and 40 ul Benzonase® Nuclease (100 Units/ml final, Novagen, Darmstadt, Germany; cat no 71206-3)) to each well. The plates were vortexed then incubated for 30 minutes at 4° C. 400 ul of MOPS buffer (pH 6.57) was added to cach well and the debris pelleted by centrifugation. The lysate supernatant was carefully removed and used as the crude bacterial extract for subsequent enzymatic analysis.
The high-throughput herbicide degradation enzyme assay was designed to assay the enzymatic activity of the engineered proteins towards various herbicides using crude bacterial extract. The engineered protein's oxygenase activity (that is, its enzymatic activity) was measured by an end point colorimetric assay utilizing detection of phenol products through measurement of absorbance at 510 nm from 4-aminoantipyrine and potassium ferricyanide. This assay was based on the assay described in Fukomori and Hausinger, Journal of Biological Chemistry (1993) 268(32):24311-24317. Enzyme reactions were assayed in 96-well plates in a total volume of 150ul that contained: 20 mM MOPS pH 6.75, 50-200 uM NH4FeSO4, 50-200 uM sodium ascorbate, 1 mM alpha-ketoglutarate (aKG), 10 ul of E. coli cell lysate containing expressed engineered protein, and substrate (either an AOPP herbicide or phenoxy acid herbicide). […] Absorbance measurements were made on a standard laboratory spectrometer. Assays were scaled as needed to enhance throughput. Standard curves were generated using purified protein or product standards.
Using this high-throughput bacterial protein expression and enzyme assay system, activities of approximately 1200 engineered proteins were measured relative to the activity of a selected wild-type protein, RdpA. In a 96 well plate assay, there were 3 controls (crude bacterial extract without an engineered protein) and 3 positive controls (crude bacterial extract with wild-type protein). The absorbance of the wells was measured and the protein activity was calculated using the following formula:
[formula] where, Activityi is the activity of the sample, Absorbancei is the absorbance of the sample, AbsorbanceWT is the absorbance of the wells containing extract from E. coli expressing the wild-type enzyme, and AbsorbancepET is the absorbance of the wells containing extract from E. coli without an engineered protein. Activity for each unique engineered protein was measured in duplicate and was reported as an average of the two measurements.
Using the information learned from the first assays, protein engineering was then done as described previously to produce additional engineered proteins, which were tested as described in this Example 1. The results of the high-throughput enzyme assay with quizalofop-P as the substrate for five of these additional engineered proteins are provided in Table 2.

transgenic maize plants [2] = test: inbred trait efficacy field trials (R2); format: in vivo; details: with or without CTP; quizalofop-P 0.16 lb ai/acre PRE, V4, V8
Protocol: Inbred trait efficacy field trials were conducted to assess tolerance to the AOPP herbicides and sensitivity to the cyclohexanediones (CHD) herbicides in an inbred background. R2 inbred plants were generated by selfing a homozygous transgenic R1 plant and collecting seed. R2 inbred plants containing MON-HT55 with or without a CTP or MON-HT51 with a CTP and were evaluated at two field locations. Herbicide treatment was 2× quizalofop-P at 0.16 lb ai/acre applied PRE (after planting but before emergence) followed by quizalofop-P at 0.16 lb ai/acre applied at V4 growth stage followed by quizalofop-P at 0.16 lb ai/acre applied at V8 growth stage. Plots were rated for crop injury 7-10 days after herbicide application on a scale of 0-100 with zero being no injury and 100 being complete crop death. All data were subjected to analysis of variance and means separated at LSD (0.05). […] To test for sensitivity to CHD herbicides, which is desirable for use in volunteer control, plants were treated with a 1× rate of clethodim (0.25 lb ai/acre) at V8 growth stage. […] The resulting F1 plants containing MON-HT55 (SEQ ID NO:13) with or without a CTP or MON-HT51 (SEQ ID NO: 3) without a CTP were evaluated at six field locations. […] This permitted the engineered protein to be evaluated in maize under high temperature and water stress conditions. […]

transgenic maize plants [3] = test: R1 trait efficacy field trial (quizalofop-P and haloxyfop); format: in vivo; details: 2× quizalofop-P pre-plant, 2× haloxyfop V4, 2× quizalofop-P V8
Protocol: To assess the effect of using a CTP to target the engineered protein to the plant cell chloroplast, transgenic plants comprising a transgene insert with and without a CTP operably linked to the protein-coding sequence were compared. […] This unexpected finding was tested again in trait efficacy field trials with R1 plants comprising either MON-HT51 with or without a CTP operably linked to the protein-coding sequence or MON-HT55 with or without a CTP operably linked to the protein-coding sequence. These R1 plants were single-copy, but were still segregating. In this field trial, seed was planted in the field and treated as follows: 2× (0.16 lb ai/acre) quizalofop-P at pre-plant, 2× (0.14 lb ai/acre) haloxyfop at V4 growth stage, then 2× quizalofop-P at V8 growth stage. A higher percentage of plants comprising a CTP operably linked to the protein-coding sequence survived quizalofop-P and haloxyfop applications and had lower injury scores compared to plants not comprising a CTP operably linked to the protein-coding sequence. This confirmed the unexpected finding that a CTP operably linked to the protein-coding sequence confers higher plant tolerance to herbicide application for the engineered proteins.

Molecule | Replicate 1 quizalofop-P activity [1] | Replicate 2 quizalofop-P activity [1] | Average quizalofop-P activity [1] | crop injury of inbred plants (transgenic maize plants [2]) | Average % Herbicide Injury (transgenic maize plants [3]; CTP No) | Average % Herbicide Injury (transgenic maize plants [3]; CTP Yes) | Replicate 3 quizalofop-P activity [1]
MON-HT55: engineered oxygenase protein, amino acid sequence SEQ ID NO:11 (protein) MHAALSPLSQRFERIAVQPLTGVLGAEITGVDLREPLDDSTWNEILDAFHTYQVIYFPGQAITNEQHIAFSRRFGPVDPVPLLKSIEGYPEVQMIRREANESGRVIGENWHTDSTFLDAPPAAVVMYAKEIPPYGGDTLFTSMYTAWETLSPTMQATIEGLNVVHSATRVFGSLYQAQNRRFSNTSVKVMDVDAGDRETVHPLVVTHPETGRKGLYVNQVYCQRIEGMSEKESEPLLSFLFAHATKPEFTCRVRWQEGDVLVWDNLCTQHYAVPDYAGKFRYLTRTTVGGVRPAR | 118.48 | 99.79 | 109.13 | no injury | 49% and 90% | 24% and 25% | –
MON-HT51: engineered oxygenase protein, amino acid sequence SEQ ID NO:1 (protein) MHAALSPLSQRFERIAVQPLTGVLGAEITGVDLREPLSDSTWNEILDAFHTYQVIYFPGQAITNEQHIAFSRRFGPVDPVPLLKSIEGYPEVQMIRREANESGRVIGDDWHTDSSFLDAPPAAVVMRAIDVPEHGGDTGFLSMYTAYDALSDGLKKLISGLNVVHSATRVFGSLYQAQNRRFSNTSVKVMDVADGDRETVHPLVVTHPGSGRKGLYVNQVYCQRIEGMSEKESEPLLSFLFAHATKPEFTCRVRWKKDQVLVWDNLCTMHYAINDYHGQTRILHRTTVGGVRPAR | 117.02 | 124.87 | 117.35 | no injury | 95% | 35% | 110.17
